Measured values reported in patent US20230073947A1, “A METHOD FOR PREPARING BOVINE MYOGLOBIN USING ESCHERICHIA COLI” (iNtRON Biotechnology, Inc., priority 2020, published 2023).

System: iron-deficiency-anemia-induced animals
Format: in vivo, Sprague-Dawley rats
Procedure: The composition containing bovine myoglobin prepared according to the present invention was administered to iron-deficiency-anemia-induced animals, whereby the effectiveness of the composition containing bovine myoglobin on alleviating anemia was evaluated. Specifically, after 2 weeks acclimation period, thirty 9-week old Sprague-Dawley rats (female) were divided into 3 groups of 10 rats per group, among which one group was fed with normal feed in an amount of 10% of body weight daily for one month (Group 1; control), and the remaining two groups were fed with iron-deficient feed in an amount of 10% of body weight daily for 6 weeks to induce iron-deficiency anemia (Group 2 and Group 3). After 6 weeks of feeding, it was confirmed that iron-deficiency anemia was induced in the individual rat belonging to Group 2 and Group 3. Then, one of the anemia-induced groups was orally administered once a day with saline alone (Group 2), and the other anemia-induced group was orally administered once a day with solution containing bovine myoglobin (0.1 mg Fe/500 μ1 solution, Group 3). The administration continued for 5 weeks. During 5 weeks of administration to Group 2 and Group 3, Group 1 was continuously fed with normal feed, and Group 2 and Group 3 were fed with iron-deficient feed. […] After 5 weeks of administration, blood was collected, and whether anemia was alleviated was evaluated.

[1] = female Sprague-Dawley rats, iron-deficient feed, oral once a day 0.1 mg Fe/500 μl solution for 5 weeks

B1: bovine myoglobin (protein)
chain: MGLSDGEWQLVLNAWGKVEADVAGHGQEVLIRLFTGHPETLEKFDKFKHLKTEAEMKASEDLKKHGNTVLTALGGILKKKGHHEAEVKHLAESHANKHKIPVKYLEFISDAIIHVLHAKHPSDFGADAQAAMSKALELFRNDMAAQYKVLGFHG
modifications: heme cofactor; Bovine myoglobin
In the case of B1, the “Effectiveness at alleviating iron-deficiency anemia” value (conclusion from blood analysis after 5 weeks of administration) is reported as “effective at alleviating iron-deficiency anemia”, the “Blood test Hematocrit” value [1] is reported as 35.8 ± 1.9% and the “Blood test Hemoglobin content” value [1] is reported as 14.0 ± 0.7 g/dL. The “Weight of rats on 5 weeks after administration” value [1] was 318.9 ± 1.1 g and the “Occurrence of abnormal symptoms during the administration period” value (rat, in vivo, po) was “no abnormal symptoms”.
